# Paper PMC3417418 (2012)
# T1: CXCR3 (Homo sapiens, UniProt P49682)
# T1 chain: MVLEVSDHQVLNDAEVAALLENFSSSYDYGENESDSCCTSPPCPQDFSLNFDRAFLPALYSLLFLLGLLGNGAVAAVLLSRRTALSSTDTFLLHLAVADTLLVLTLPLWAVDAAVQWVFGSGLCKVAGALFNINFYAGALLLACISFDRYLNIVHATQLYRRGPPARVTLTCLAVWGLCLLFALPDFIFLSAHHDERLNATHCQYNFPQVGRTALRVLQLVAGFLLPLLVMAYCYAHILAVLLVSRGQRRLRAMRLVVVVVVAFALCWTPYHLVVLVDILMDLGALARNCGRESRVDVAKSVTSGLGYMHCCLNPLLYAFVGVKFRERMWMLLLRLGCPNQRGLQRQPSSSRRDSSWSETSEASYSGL
# T2: CXCR3 (Homo sapiens, UniProt P49682)
# T2 chain: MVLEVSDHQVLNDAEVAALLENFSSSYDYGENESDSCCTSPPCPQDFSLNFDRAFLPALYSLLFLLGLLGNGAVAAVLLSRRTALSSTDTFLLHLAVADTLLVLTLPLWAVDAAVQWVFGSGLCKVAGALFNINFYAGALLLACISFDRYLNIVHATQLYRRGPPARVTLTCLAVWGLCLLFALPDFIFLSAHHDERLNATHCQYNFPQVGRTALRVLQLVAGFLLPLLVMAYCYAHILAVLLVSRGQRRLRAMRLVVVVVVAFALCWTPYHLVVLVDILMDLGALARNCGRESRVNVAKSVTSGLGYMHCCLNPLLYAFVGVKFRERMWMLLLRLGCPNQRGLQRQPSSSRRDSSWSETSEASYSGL
# T3: CXCR3 (Homo sapiens, UniProt P49682)
# T3 chain: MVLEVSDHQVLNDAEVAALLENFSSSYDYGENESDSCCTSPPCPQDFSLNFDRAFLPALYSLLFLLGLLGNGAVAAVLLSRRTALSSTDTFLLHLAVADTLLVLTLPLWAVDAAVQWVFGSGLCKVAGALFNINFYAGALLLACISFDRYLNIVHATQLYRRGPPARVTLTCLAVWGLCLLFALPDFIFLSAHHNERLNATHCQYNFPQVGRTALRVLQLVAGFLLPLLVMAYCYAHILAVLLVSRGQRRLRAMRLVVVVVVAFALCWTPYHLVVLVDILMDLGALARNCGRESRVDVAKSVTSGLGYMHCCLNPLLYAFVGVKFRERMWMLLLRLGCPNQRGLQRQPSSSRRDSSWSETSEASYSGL
# T4: CXCR3 (Homo sapiens, UniProt P49682)
# T4 chain: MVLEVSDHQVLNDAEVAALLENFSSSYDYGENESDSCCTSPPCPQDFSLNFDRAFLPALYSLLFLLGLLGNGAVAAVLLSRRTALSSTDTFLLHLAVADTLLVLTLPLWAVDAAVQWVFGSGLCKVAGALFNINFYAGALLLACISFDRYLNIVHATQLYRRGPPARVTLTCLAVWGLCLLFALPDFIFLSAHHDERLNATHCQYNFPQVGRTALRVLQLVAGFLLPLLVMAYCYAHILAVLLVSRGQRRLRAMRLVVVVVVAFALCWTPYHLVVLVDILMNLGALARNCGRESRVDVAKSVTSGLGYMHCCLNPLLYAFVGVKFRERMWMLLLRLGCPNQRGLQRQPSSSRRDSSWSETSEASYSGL
# T5: CXCR3 (Homo sapiens, UniProt P49682)
# T5 chain: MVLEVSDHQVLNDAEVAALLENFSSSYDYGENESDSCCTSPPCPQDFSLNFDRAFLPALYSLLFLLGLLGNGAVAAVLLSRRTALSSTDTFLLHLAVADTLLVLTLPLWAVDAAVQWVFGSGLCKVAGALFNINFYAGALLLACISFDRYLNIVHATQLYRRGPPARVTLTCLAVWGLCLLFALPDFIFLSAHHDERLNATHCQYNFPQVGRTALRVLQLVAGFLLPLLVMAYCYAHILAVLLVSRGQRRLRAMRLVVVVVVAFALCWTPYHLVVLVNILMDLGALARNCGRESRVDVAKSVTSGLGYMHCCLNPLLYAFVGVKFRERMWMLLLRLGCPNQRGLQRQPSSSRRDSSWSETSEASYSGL
# T6: CXCR3 (Homo sapiens, UniProt P49682)
# T6 chain: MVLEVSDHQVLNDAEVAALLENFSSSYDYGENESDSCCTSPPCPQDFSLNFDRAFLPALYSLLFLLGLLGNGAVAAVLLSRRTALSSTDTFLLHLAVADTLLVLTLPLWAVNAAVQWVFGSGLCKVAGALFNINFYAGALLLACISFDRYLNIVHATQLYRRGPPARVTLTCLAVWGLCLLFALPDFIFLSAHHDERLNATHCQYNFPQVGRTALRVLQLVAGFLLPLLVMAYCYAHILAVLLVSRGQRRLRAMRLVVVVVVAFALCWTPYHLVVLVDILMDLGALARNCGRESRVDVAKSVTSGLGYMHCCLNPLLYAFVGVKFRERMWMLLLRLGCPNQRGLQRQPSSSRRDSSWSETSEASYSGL
# T7: CXCR3 (Homo sapiens, UniProt P49682)
# T7 chain: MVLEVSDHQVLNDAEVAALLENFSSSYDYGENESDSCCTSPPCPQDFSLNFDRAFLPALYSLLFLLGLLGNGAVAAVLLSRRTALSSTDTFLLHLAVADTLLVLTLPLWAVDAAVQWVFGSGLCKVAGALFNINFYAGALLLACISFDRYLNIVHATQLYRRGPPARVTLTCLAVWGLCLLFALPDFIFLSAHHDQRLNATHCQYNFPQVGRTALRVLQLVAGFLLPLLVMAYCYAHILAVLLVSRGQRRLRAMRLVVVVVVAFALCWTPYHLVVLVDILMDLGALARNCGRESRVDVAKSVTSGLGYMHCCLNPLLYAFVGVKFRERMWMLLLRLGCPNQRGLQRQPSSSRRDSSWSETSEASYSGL
# How the values were obtained:
# [1] = biological target: T1, CXCR3; experiment: competition with 125I-CXCL10 on L1.2 cells
# [2] = biological target: T2, CXCR3; experiment: homologous competition 125I radioligand binding on L1.2 cells
# [3] = biological target: T3, CXCR3; experiment: as above
# [4] = biological target: T4, CXCR3; experiment: as above
# [5] = biological target: T5, CXCR3; experiment: as above
# [6] = biological target: T6, CXCR3; experiment: as above
# [7] = biological target: T7, CXCR3; experiment: as above
# [8] = biological target: T1, CXCR3; experiment: competition with 125I-CXCL11 on L1.2 cells
binder,measurement,setting,value
CXCL11 (protein) FPMFKRGRCLCIGPGVKAVKVADIEKASIMYPSNNCDKIEVIITLKENKGQRCLNPKSKQARLIIKKVERKNF,IC50,[1],0.4 nM
same,Kd,[2],26.3 nM
same,Kd,[3],16 nM
same,Kd,[4],1.4 nM
same,Kd,[5],2.6 nM
same,Kd,[6],3.8 nM
same,Kd,[7],0.4 nM
same,IC50,[8],1.2 nM
